Experiment: Test 1: antioxidant effect on linoleic acid, peroxides by ferric thiocyanate method
Assay type: biochemical
Details: 0.2% added to linoleic acid, 60° C.
Experimental: A sample was prepared by adding dl-α tocopherol (manufactured by Wako Jun-yaku Kogyo Company), bovine lactoferrin (manufactured by Sigma Company), hydrolysate of lactoferrin (prepared by the same method as in the Example 2), or peptide (prepared by the same method as in the Example 3) to a final concentration of 0.2% (weight percentage; same applies hereafter except for the degree of decomposition) to commercially available linoleic acid (manufactured by Wako Jun-Yaku Kogyo Company) containing no additive. Hereafter, the thus prepared samples are individually referred to as […].
Antioxidant effect of the individual samples was tested by the method of Mitsuda et al.(Eiyo to Shokuryo, Vol. 19, p. 210, 1966) described below.
The above-mentioned samples were added to a mixed solution containing 10 ml of ethanol, 10 ml of 0.1M phosphate buffer solution (pH: 7.0), and 5 ml of deionized water so as to achieve a final concentration of linoleic acid of […](mol/l). This solution was placed in a vial bottle having a capacity of 50 ml, and the closely plugged bottle was held in an incubator at 60° C. The total volume was always adjusted to 25 ml by reducing the above-mentioned ionized water, depending upon the quantity of added sample. At prescribed time intervals, 0.1 ml was sampled from this vial bottle to measure the quantity of peroxides by the following ferric thiocyanate method.
To the sample solution in an amount of 0.1 ml, 4.7 ml of 75% ethanol, 0.1 ml of 30% ammonium rhodanide, and 0.1 ml of 3.5% hydrochloric acid solution of 2×10^-2 M ferrous chloride were added, and absorbance at 500 nm was measured upon the lapse of just three minutes.

B1: Sample 3: Test 1 Sample 3: bovine lactoferrin (Sigma Company) added to linoleic acid (protein)
chain: APRKNVRWCTISQPEWFKCRRWQWRMKKLGAPSITCVRRAFALECIRAIAEKKADAVTLDGGMVFEAGRDPYKLRPVAAEIYGTKESPQTHYYAVAVVKKGSNFQLDQLQGRKSCHTGLGRSAGWIIPMGILRPYLSWTESLEPLQGAVAKFFSASCVPCIDRQAYPNLCQLCKGEGENQCACSSREPYFGYSGAFKCLQDGAGDVAFVKETTVFENLPEKADRDQYELLCLNNSRAPVDAFKECHLAQVPSHAVVARSVDGKEDLIWKLLSKAQEKFGKNKSRSFQLFGSPPGQRDLLFKDSALGFLRIPSKVDSALYLGSRYLTTLKNLRETAEEVKARYTRVVWCAVGPEEQKKCQQWSQQSGQNVTCATASTTDDCIVLVLKGEADALNLDGGYIYTAGKCGLVPVLAENRKSSKHSSLDCVLRPTEGYLAVAVVKKANEGLTWNSLKDKKSCHTAVDRTAGWNIPMGLIVNQTGSCAFDEFFSQSCAPGADPKSRLCALCAGDDQGLDKCVPNSKEKYYGYTGAFRCLAEDVGDVAFVKNDTVWENTNGESTADWAKNLNREDFRLLCLDGTRKPVTEAQSCHLAVAPNHAVVSRSDRAAHVKQVLLHQQALFGKNGKNCPDKFCLFKSETKNLLFNDNTECLAKLGGRPTYEEYLGTEYVTAIANLKKCSTSPLLEACAFLTR
Degree of peroxidation (absorbance at 500 nm) (period of preservation 0 days): 0
Degree of peroxidation (absorbance at 500 nm) (period of preservation 3 days): 0.23
Degree of peroxidation (absorbance at 500 nm) (period of preservation 6 days): 0.30
Degree of peroxidation (absorbance at 500 nm) (period of preservation 10 days): 0.31
Degree of peroxidation (absorbance at 500 nm) (period of preservation 13 days): 0.32
